Measurements reported in the RNAGym collection of RNA variant scans (doi:10.1093/nar/gkz1192).

B1: CPEB3 Ribozyme (parent)
chain: UAACAGGGGGCCACAGCAGAAGCGUUCACGUCGCAGCCCCUGUCAGAUUCUGGUGAAUCUGCGAAUUCUGCUGUAUAUCUC

Variants of: B1
Test: self-cleavage, relative activity (ratio to wild type); higher = more cleavage; in vitro, sequencing
Procedure, shortened: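 Relative activity was defined as the cleaved/total read fraction for a variant divided by the same fraction for the unmutated ribozyme. CPEB3 self-cleaving ribozyme libraries were made by rounds of error-prone PCR, barcoded, and transcribed in vitro with T7 RNA polymerase for 5 hours at 37°C, and cleavage ran through transcription plus a 15 min DNase I step before EDTA. Illumina sequencing of template-switched reverse transcripts gave the reads, and DNA sequencing mapped the barcodes. Averages come from three batches, using variants with at least 5 reads.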

Which self-cleavage does the source give for C34U A47U here?
The self-cleavage was 0.17.

Which self-cleavage does the source give for C34U A47G here?
Its self-cleavage is 0.43.

For C34U A47C, which self-cleavage is on record?
Its self-cleavage is 0.41.

For A35C C40A, which self-cleavage is on record?
The self-cleavage was 0.6.

Which self-cleavage does the source give for C34A U67A here?
The self-cleavage was 0.33.

For C34A U67C, which self-cleavage is on record?
The self-cleavage was 0.29.

Which self-cleavage does the source give for A35U C71G here?
The self-cleavage was 0.15.

Which self-cleavage does the source give for A35U C71U here?
Its self-cleavage is 0.37.

For A35U C71A, which self-cleavage is on record?
Its self-cleavage is 0.13.

With A35C A56G as the variant, how does the self-cleavage read?
The self-cleavage was 0.77.

For A35C A56U, which self-cleavage is on record?
The self-cleavage was 0.53.

For A35G A45G, which self-cleavage is on record?
Its self-cleavage is 1.26.

For A35G A45U, which self-cleavage is on record?
The self-cleavage was 1.13.

With A35G A45C as the variant, how does the self-cleavage read?
Its self-cleavage is 1.17.

With C34G C44A as the variant, how does the self-cleavage read?
Its self-cleavage is 0.1.

Which self-cleavage does the source give for C34U A35U here?
Its self-cleavage is 0.27.

For C34U A35G, which self-cleavage is on record?
The self-cleavage was 0.36.

For A35U, which self-cleavage is on record?
Its self-cleavage is 0.54.

For A35G, which self-cleavage is on record?
The self-cleavage was 1.27.

Which self-cleavage does the source give for A35C here?
The self-cleavage was 0.85.

With A35U C59A as the variant, how does the self-cleavage read?
Its self-cleavage is 0.15.

For A35U C59U, which self-cleavage is on record?
The self-cleavage was 0.29.

Which self-cleavage does the source give for A35U G52A here?
The self-cleavage was 0.54.

For A35U G52C, which self-cleavage is on record?
The self-cleavage was 0.44.

Which self-cleavage does the source give for A35U G52U here?
The self-cleavage was 0.72.

For A35G G70U, which self-cleavage is on record?
Its self-cleavage is 0.78.

With A35G G70A as the variant, how does the self-cleavage read?
The self-cleavage was 1.13.

With C34U U72A as the variant, how does the self-cleavage read?
Its self-cleavage is 0.26.

Which self-cleavage does the source give for C34U U72G here?
The self-cleavage was 0.33.

For C34U U72C, which self-cleavage is on record?
The self-cleavage was 0.63.

With A35G C37A as the variant, how does the self-cleavage read?
The self-cleavage was 0.86.

With A35G C37G as the variant, how does the self-cleavage read?
Its self-cleavage is 0.89.

For C34U U49C, which self-cleavage is on record?
Its self-cleavage is 0.16.

With C34A A56G as the variant, how does the self-cleavage read?
The self-cleavage was 0.22.

With C34A A56U as the variant, how does the self-cleavage read?
The self-cleavage was 0.43.

With A35G U41C as the variant, how does the self-cleavage read?
Its self-cleavage is 1.23.

With A35G U41G as the variant, how does the self-cleavage read?
The self-cleavage was 0.33.

With A35G U41A as the variant, how does the self-cleavage read?
The self-cleavage was 0.44.

For C34G G63C, which self-cleavage is on record?
Its self-cleavage is 0.24.

Which self-cleavage does the source give for C34A U80C here?
Its self-cleavage is 0.34.

Which self-cleavage does the source give for C34A U80G here?
Its self-cleavage is 0.33.

For C34U U48C, which self-cleavage is on record?
Its self-cleavage is 0.47.

For C34U U48G, which self-cleavage is on record?
The self-cleavage was 0.3.

With C34U U69C as the variant, how does the self-cleavage read?
Its self-cleavage is 0.35.

Which self-cleavage does the source give for C34U U69A here?
The self-cleavage was 0.13.

Which self-cleavage does the source give for A35G A65G here?
The self-cleavage was 1.19.

Which self-cleavage does the source give for A35G A65C here?
Its self-cleavage is 0.67.

For A35G A65U, which self-cleavage is on record?
Its self-cleavage is 0.96.

Which self-cleavage does the source give for C34G U69A here?
Its self-cleavage is 0.3.

With C34G U69C as the variant, how does the self-cleavage read?
The self-cleavage was 0.21.

With A35U A47G as the variant, how does the self-cleavage read?
Its self-cleavage is 0.48.

Which self-cleavage does the source give for A35U A47C here?
Its self-cleavage is 0.4.

With A35U A47U as the variant, how does the self-cleavage read?
The self-cleavage was 0.26.

With A35U C81G as the variant, how does the self-cleavage read?
Its self-cleavage is 0.39.

With A35U C81U as the variant, how does the self-cleavage read?
Its self-cleavage is 0.61.

Which self-cleavage does the source give for A35G U80G here?
Its self-cleavage is 1.37.

For A35G U80A, which self-cleavage is on record?
Its self-cleavage is 1.32.

For A35G U80C, which self-cleavage is on record?
Its self-cleavage is 1.3.

Which self-cleavage does the source give for C34U A65G here?
Its self-cleavage is 0.34.

Which self-cleavage does the source give for A35G A47C here?
Its self-cleavage is 1.3.

For A35G A47G, which self-cleavage is on record?
Its self-cleavage is 1.26.

Which self-cleavage does the source give for A35G A47U here?
Its self-cleavage is 1.16.

Which self-cleavage does the source give for C34A U78C here?
Its self-cleavage is 0.32.

For C34A U78A, which self-cleavage is on record?
Its self-cleavage is 0.16.

With A35U C50A as the variant, how does the self-cleavage read?
The self-cleavage was 0.43.

For A35U G53A, which self-cleavage is on record?
Its self-cleavage is 0.51.

Which self-cleavage does the source give for A35U G53U here?
The self-cleavage was 0.76.

Which self-cleavage does the source give for A35G U60C here?
Its self-cleavage is 1.03.

With A35G U60G as the variant, how does the self-cleavage read?
Its self-cleavage is 1.04.

Which self-cleavage does the source give for A35G U60A here?
Its self-cleavage is 1.14.

With A35G G55C as the variant, how does the self-cleavage read?
The self-cleavage was 1.46.

With A35G G55A as the variant, how does the self-cleavage read?
The self-cleavage was 1.23.

For A35C A45U, which self-cleavage is on record?
The self-cleavage was 0.24.

Which self-cleavage does the source give for A35C A45C here?
Its self-cleavage is 0.31.

For A35G C68A, which self-cleavage is on record?
Its self-cleavage is 1.19.

For C34G U60C, which self-cleavage is on record?
The self-cleavage was 0.15.

With C34G C71U as the variant, how does the self-cleavage read?
The self-cleavage was 0.52.

Which self-cleavage does the source give for A35C C38A here?
Its self-cleavage is 0.2.

For C34U C44A, which self-cleavage is on record?
The self-cleavage was 0.38.

Which self-cleavage does the source give for C34G U67C here?
Its self-cleavage is 0.13.

Which self-cleavage does the source give for C34A C44U here?
The self-cleavage was 0.08.

Which self-cleavage does the source give for C34U G63A here?
The self-cleavage was 0.27.

With C34U G63U as the variant, how does the self-cleavage read?
Its self-cleavage is 0.38.
